From the supplement of paper PMC12042874
± gives the uncertainty stated by the source.

Experiment: amyloid nucleation score (Sup35N fusion, yeast selection) (log enrichment); library NNK2; higher = more nucleation; inactive = no reads after selection
How it was run: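 Peptides of 20 random codons fused to Sup35N were expressed in psi-negative yeast, induced 24 hours with 100 μM copper sulfate, then grown 7 days at 30°C on medium lacking adenine and uracil. Input and output plasmid inserts were Illumina-sequenced. Nucleation score is the DiMSum log enrichment of output over input reads, centred on the mode score of non-aggregating sequences, excluding sequences with under 100 input reads. Random libraries had three technical output replicates.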

Row | Substance | amyloid nucleation score
1 | RVDGDYSSARRGGLISKWAF | 0.804 ± 0.5
2 | NDMFLSYLHSPWYNVLCDFI | -1.29 ± 0.49
3 | WEASSFKVSGLSGSHHPSKG | 2.3 ± 0.13
4 | NSSRGQPHLSNFPIRHHHVN | 0.461 ± 0.66
5 | TEIRLNVSLRSRRGPCPTRL | 6.06 ± 0.06
6 | DDFGCLYFYILYS | inactive
7 | NHSGRYGRRLILRLGFFGVG | -0.655 ± 0.28
8 | SDEIECCKYFFGYL | 5.347 ± 0.047
9 | SCMSFVLKFPQTLSVWVCWG | 4.97 ± 0.072
10 | FFCMA | 5.48 ± 0.056
11 | YQFTGFLLGRVIASIIRHGV | 0.023 ± 0.45
12 | LSRWKDRSRGWRGDAAPRIR | 0.539 ± 0.56
13 | WQYFFGMYNPSGGRRPGISG | -0.373 ± 1
14 | QYMYLYIKRMMYSSTKKF | inactive
15 | NGYRG | 0.376 ± 0.53
16 | HGNWGLLYLTDALVKMIQDV | -0.311 ± 0.3
17 | SFDLAVTECIALCFRCYQVF | -1.04 ± 0.39
18 | MVKLFSLSTS | -0.533 ± 0.2
19 | RGFCYNIT | 0.305 ± 0.37
20 | ILLTFVPAEKSWTSAIL | 0.058 ± 0.55
21 | LARGCFAFN | -0.363 ± 1
22 | AAAHLH | -0.75 ± 0.76
23 | HLYRSCVNKLL | -0.833 ± 1.1
24 | FSSNTKSNKRIDV | 0.147 ± 0.8
25 | GSGNPGMSIFVKIY | -1.16 ± 0.62
26 | NDMVRAISRKGIVSIHRRTR | 0.724 ± 0.45

Row | Substance | amyloid nucleation score
27 | TWIGYHFGI | inactive
28 | KFWLCDEGYWWNVASGLSSV | 0.845 ± 0.32
29 | LGTAKNFIPSGNVRLLALQF | inactive
30 | LLFMVIFDRECRVIIHCGTM | -0.21 ± 0.34
31 | LRSQSHR | 1.31 ± 0.33
32 | RLLMGPVNSFGR | 3.57 ± 0.07
33 | CYHFCYYVLSLVWGQNPVIK | 0.108 ± 0.65
34 | DCLFLKVSPLVHQYYWIGFD | 0.306 ± 0.8
35 | SAGVEAREMRTSYLGSSEVG | 1.28 ± 0.32
36 | NTLLILHIDICYVYSVILTF | -0.942 ± 0.76
37 | RIGDRSCSVRKEHKDAQWSI | 0.196 ± 0.77
38 | VMFSVDHRLTQ | -0.354 ± 0.35
39 | ALLYYSMCCRFMRPTSAYHV | 0.246 ± 1.1
40 | FTWVYMVGFKWWVSVCLLDS | -0.551 ± 0.28
41 | LVQMISKILYNEE | inactive
42 | SISHQRMWKGCADEII | -0.242 ± 1.1
43 | QWSVINRTS | 1.54 ± 0.31
44 | FAYFDDLGVLMLYQLNRMSL | -0.097 ± 1.1
45 | LCIDHYVDEMPSIRVVDFYF | 0.741 ± 0.6
46 | IRVFSDGAFKTEFTTKATLL | 0.328 ± 0.65
47 | LFSLPPCFN | 1.5 ± 0.11
48 | RLTDLVSMVSLNPLYFMWSS | -0.08 ± 0.3
49 | GVRSNLSYNIFVTCAMRASG | inactive
50 | SGWWTKHRTMLKYYTLFAMG | -0.449 ± 0.44
51 | CPLRLTRGLKCRVYINWEHQ | 0.354 ± 0.48
52 | FGLQMQAWREKDHQENGLIQ | 0.798 ± 0.31

Row | Substance | amyloid nucleation score
53 | AAVNWNRFPKTVTA | -0.195 ± 0.33
54 | FLFQWLLEKPYFYPAFCKCK | 4.49 ± 0.061
55 | AVAVACLDH | 0.713 ± 0.58
56 | LKSEALDGAADCRGCYSGPL | 0.374 ± 0.64
57 | YPKSLV | -0.698 ± 1.1
58 | VYTRMKITVGFKYLYN | 1.24 ± 0.45
59 | PFMLSVHFALYMSDYIYMHL | -0.02 ± 0.46
60 | NNCVQTGSGGGGRCLRDTCG | 3.8 ± 0.085
61 | YLSDNLIAFWIVHNQWMIMA | 6.005 ± 0.035
62 | DYRMCI | 0.926 ± 0.48
63 | CDLIASQSVIAIVNIMIRHV | 6.63 ± 0.062
64 | DKICNYVVGGEVYFSMNHYW | 8.327 ± 0.047
65 | SYDIFWILWLASCMLILYII | 2.92 ± 0.099
66 | YFMVHIMGTVKIGRW | 3.13 ± 0.098
67 | YWSYSLGGSQEYSGHTMA | -0.135 ± 0.35
68 | FNFVMLYPTPAGSAKFVGCI | 2.85 ± 0.19
69 | FYVRGGCI | -2.22 ± 0.76
70 | DVETL | -1.24 ± 0.41
71 | SPKRFTCSGDCSR | -0.573 ± 0.78
72 | LVNSKYDLGSSGSFDNRFAC | -0.242 ± 0.63
73 | FFDRMLYLRVARCTTFWPVD | 0.492 ± 0.64
74 | YLRVKMPVIRVIVR | inactive
75 | VLELLGPIMSRKIFLKVGFC | inactive
76 | DAVMVWVGDV | 0.179 ± 0.17
77 | SSYKTLPAMLVARMLINYTV | -1.02 ± 0.45
78 | NEYMYVR | 0.969 ± 0.52

Row | Substance | amyloid nucleation score
79 | GVISYMTSRGRGLSNNMSNW | -0.15 ± 0.56
80 | HKGCGNSCIWHYFGNFWRFR | -0.658 ± 0.56
81 | ARNIGDCRDVSCDWCFSYAF | 5.13 ± 0.064
82 | INFGWCFYMTRRWVCGMVFR | 0.106 ± 1
83 | SCSVGRNKMWILVLVVVWGE | 0.035 ± 0.54
84 | DRLLRSRLGIRSNRIVCW | -0.539 ± 0.36
85 | LGSLDSVFNSFHRAGS | -0.518 ± 0.56
86 | KFIPLINIRTQL | inactive
87 | YQSVRK | -0.022 ± 0.55
88 | KTLFINLHSCCANVGYAVRW | 4.87 ± 0.058
89 | YTRSAGGLISL | -0.774 ± 1.1
90 | CPSYSTMSTGFVERVLPTGR | 1.53 ± 0.39
91 | QCGMIMRSSLKSGATCFLDS | 0.124 ± 0.61
92 | RFSCLSELSFLYFGSH | 5.059 ± 0.034
93 | ILTIALVRFSLSRWRLPWPY | 1.36 ± 0.29
94 | CLGRLMVYSAYYVHLYGVTI | -1.29 ± 0.62
95 | LWLVYSESWSMYAMS | 1.19 ± 0.12
96 | WFAGFMCRVLACTFSALKLS | -0.917 ± 0.78
97 | FLFVNDVGRE | inactive
98 | MIMLDAEGLYIIPRGVSKFL | 1.87 ± 0.11
99 | HSSGCYF | 0.081 ± 1.1
100 | VRMSSRRS | 1.24 ± 0.36
101 | PTYFWKQQCWVHYICWIMSY | -1.15 ± 0.35
102 | VILGVGKTTNFYSSFFIRVW | inactive
103 | HRYSRLRRVHYSYRSKGLNH | inactive
104 | YITYSREAETCIFVKGDFS | -0.153 ± 1.1

Row | Substance | amyloid nucleation score
105 | CVMMSQAFF | 5.22 ± 0.084
106 | SFVLIKIMILLCDAVYGH | 3.58 ± 0.054
107 | ACTLCGVWSVFTIFARHKIR | 3.1 ± 0.18
108 | FINNNNGAPSRVHPTGALTR | -0.357 ± 0.53
109 | TLPRSII | -0.113 ± 1.1
110 | SYEAGMHVNKGYLQVMCVDG | -0.086 ± 0.23
111 | TIGRGYGSISQRHAIRLGDN | 0.164 ± 0.8
112 | FPNLFYFADYVLICNLMIKL | 4.585 ± 0.029
113 | TRETHLGNAFA | 0.674 ± 0.53
114 | FDGLIFSITRTLVY | -1.42 ± 1.1
115 | GMSQAIVGVICSGIYLPEVR | 0.44 ± 0.37
116 | TACVSWGPSYWV | inactive
117 | VTVNE | 0.711 ± 0.21
118 | RSICVYTIRYLFSH | -0.513 ± 0.3
119 | FLIFSYIGLFSVISYRSARV | inactive
120 | LGTNMAMVGSN | -0.623 ± 0.27
121 | DMMRFYGAPDGQGNTHQNRT | 1.63 ± 0.12
122 | CDGTLCWKPGWYGDQKFERR | 1.32 ± 0.36
123 | SGILVKLVMIFSWKGGGV | 2.96 ± 0.066
124 | WVACWTSLLYQVIVIIRGLN | 0.975 ± 0.38
125 | SFLRARLCCHMMGHSTLKYH | -0.72 ± 1.1
126 | YWFVGTPCAVRVGWFSQPHR | 0.612 ± 0.45
127 | VWYLFKNAFHMVFKTEWYEG | -1.52 ± 0.54
